Key:
[1] = target: membrane-bound lytic murein transglycosylase A (MltA) from Acinetobacter baumannii, N-terminally truncated (Gly23-Asn388), wild type (Acinetobacter baumannii); experiment: SEC-MALS; Ni-NTA-purified protein on Superdex 200 10/300, 20 mM Tris-HCl pH 8.0, 150 mM NaCl, 0.3 ml/min, 25°C; DAWN TREOS detector; self-association
[2] = target: abMltA triple mutant (D151K, Y162K or Y162W, E164K); experiment: SEC-MALS; conditions: read off a plot

Work on “membrane-bound lytic murein transglycosylase A (MltA) from Acinetobacter baumannii, N-terminally truncated (Gly23-Asn388), wild type (enzyme)” yielded a stoichiometry N [1] of 2.
In the case of “membrane-bound lytic murein transglycosylase A (MltA) from Acinetobacter baumannii, N-terminally truncated (Gly23-Asn388), wild type D151K; Y162W; E164K”, the other: molecular mass (MALS) [2] is reported as 45000 Da.
